{
  "source": "patent EP2025683A1",
  "about": "(INSERM (Institut National de la Santé et de la Recherche …, dated 2009)",
  "key": {"human prolactin receptor [1]": {"target": "T1, human prolactin receptor (human, UniProt P16471 25-622)", "T1 sequence (looked up)": "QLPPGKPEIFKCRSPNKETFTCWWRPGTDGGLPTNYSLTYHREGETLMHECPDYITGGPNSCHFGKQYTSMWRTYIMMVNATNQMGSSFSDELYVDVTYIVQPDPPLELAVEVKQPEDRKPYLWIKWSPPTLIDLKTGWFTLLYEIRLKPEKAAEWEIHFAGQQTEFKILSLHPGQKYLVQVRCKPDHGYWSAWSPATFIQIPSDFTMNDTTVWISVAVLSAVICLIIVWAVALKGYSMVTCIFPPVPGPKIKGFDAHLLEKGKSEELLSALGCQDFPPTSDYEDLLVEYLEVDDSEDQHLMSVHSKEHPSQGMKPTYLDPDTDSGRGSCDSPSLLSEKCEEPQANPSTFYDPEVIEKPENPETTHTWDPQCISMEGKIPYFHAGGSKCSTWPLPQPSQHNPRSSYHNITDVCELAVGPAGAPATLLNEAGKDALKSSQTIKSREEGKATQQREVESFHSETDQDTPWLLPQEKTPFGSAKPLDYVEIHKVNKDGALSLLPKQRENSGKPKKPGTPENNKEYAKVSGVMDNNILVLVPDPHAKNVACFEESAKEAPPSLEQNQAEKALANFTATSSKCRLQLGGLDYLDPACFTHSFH", "test": "cell-based or functional assay"}, "human prolactin receptor [2]": {"target": "T1, human prolactin receptor", "test": "displacement of [125I]-hPRL, homogenates of HEK 293 cells stably expressing hPRLR (HL-5 clone)"}},
  "data": [
    {"molecule": "Del1-9-G129R-hPRL (from UniProt P01236 29-227) (ligand)", "values": [
      {"measurement": "Agonism Ba/F-LP cells (% of hPRL max activity) (% of hPRL max activity)", "setting": "human prolactin receptor [1]", "value": 8.3},
      {"measurement": "Antagonism HL-5 cells IC50", "setting": "human prolactin receptor [1]", "value": 120, "unit": "nM"}
    ]},
    {"molecule": "G129D-hPRL (ligand, human, UniProt P01236 29-227, looked up) LPICPGGAARCQVTLRDLFDRAVVLSHYIHNLSSEMFSEFDKRYTHGRGFITKAINSCHTSSLATPEDKEQAQQMNQKDFLSLIVSILRSWNEPLYHLVTEVRGMQEAPEAILSKAVEIEEQTKRLLEDMELIVSQVHPETKENEIYPVWSGLPSLQMADEESRLSAYYNLLHCLRRDSHKIDNYLKLLKCRIIHNNNC", "values": [
      {"measurement": "Agonism Ba/F-LP cells (% of hPRL max activity)", "setting": "human prolactin receptor [1]", "value": "23.6 % of hPRL max activity"},
      {"measurement": "Antagonism HL-5 cells IC50", "setting": "human prolactin receptor [1]", "value": 340, "unit": "nM"}
    ]},
    {"molecule": "G129L-hPRL (ligand, human, UniProt P01236 29-227, looked up) LPICPGGAARCQVTLRDLFDRAVVLSHYIHNLSSEMFSEFDKRYTHGRGFITKAINSCHTSSLATPEDKEQAQQMNQKDFLSLIVSILRSWNEPLYHLVTEVRGMQEAPEAILSKAVEIEEQTKRLLELMELIVSQVHPETKENEIYPVWSGLPSLQMADEESRLSAYYNLLHCLRRDSHKIDNYLKLLKCRIIHNNNC", "values": [
      {"measurement": "Agonism Ba/F-LP cells (% of hPRL max activity)", "setting": "human prolactin receptor [1]", "value": "16.8 % of hPRL max activity"},
      {"measurement": "Antagonism HL-5 cells IC50", "setting": "human prolactin receptor [1]", "value": 160, "unit": "nM"}
    ]},
    {"molecule": "G129F-hPRL (ligand, human, UniProt P01236 29-227, looked up) LPICPGGAARCQVTLRDLFDRAVVLSHYIHNLSSEMFSEFDKRYTHGRGFITKAINSCHTSSLATPEDKEQAQQMNQKDFLSLIVSILRSWNEPLYHLVTEVRGMQEAPEAILSKAVEIEEQTKRLLEFMELIVSQVHPETKENEIYPVWSGLPSLQMADEESRLSAYYNLLHCLRRDSHKIDNYLKLLKCRIIHNNNC", "values": [
      {"measurement": "Agonism Ba/F-LP cells (% of hPRL max activity)", "setting": "human prolactin receptor [1]", "value": "19.1 % of hPRL max activity"},
      {"measurement": "Antagonism HL-5 cells IC50", "setting": "human prolactin receptor [1]", "value": 110, "unit": "nM"}
    ]},
    {"molecule": "G129R-hPRL (ligand, human, UniProt P01236 29-227, looked up, mature) LPICPGGAARCQVTLRDLFDRAVVLSHYIHNLSSEMFSEFDKRYTHGRGFITKAINSCHTSSLATPEDKEQAQQMNQKDFLSLIVSILRSWNEPLYHLVTEVRGMQEAPEAILSKAVEIEEQTKRLLERMELIVSQVHPETKENEIYPVWSGLPSLQMADEESRLSAYYNLLHCLRRDSHKIDNYLKLLKCRIIHNNNC", "values": [
      {"measurement": "Agonism Ba/F-LP cells (% of hPRL max activity)", "setting": "human prolactin receptor [1]", "value": "45.5 % of hPRL max activity"},
      {"measurement": "Antagonism HL-5 cells IC50", "setting": "human prolactin receptor [1]", "value": 200, "unit": "nM"},
      {"measurement": "IC50", "setting": "human prolactin receptor [2]", "value": 19, "unit": "nM"},
      {"measurement": "affinity relative to WT hPRL", "setting": "human prolactin receptor [2]", "value": "~1 order of magnitude lower than WT hPRL"}
    ]},
    {"molecule": "G129Y-hPRL (ligand, human, UniProt P01236 29-227, looked up) LPICPGGAARCQVTLRDLFDRAVVLSHYIHNLSSEMFSEFDKRYTHGRGFITKAINSCHTSSLATPEDKEQAQQMNQKDFLSLIVSILRSWNEPLYHLVTEVRGMQEAPEAILSKAVEIEEQTKRLLEYMELIVSQVHPETKENEIYPVWSGLPSLQMADEESRLSAYYNLLHCLRRDSHKIDNYLKLLKCRIIHNNNC", "values": [
      {"measurement": "Agonism Ba/F-LP cells (% of hPRL max activity)", "setting": "human prolactin receptor [1]", "value": "24.3 % of hPRL max activity"},
      {"measurement": "Antagonism HL-5 cells IC50", "setting": "human prolactin receptor [1]", "value": 190, "unit": "nM"}
    ]},
    {"molecule": "G129N-hPRL (ligand, human, UniProt P01236 29-227, looked up) LPICPGGAARCQVTLRDLFDRAVVLSHYIHNLSSEMFSEFDKRYTHGRGFITKAINSCHTSSLATPEDKEQAQQMNQKDFLSLIVSILRSWNEPLYHLVTEVRGMQEAPEAILSKAVEIEEQTKRLLENMELIVSQVHPETKENEIYPVWSGLPSLQMADEESRLSAYYNLLHCLRRDSHKIDNYLKLLKCRIIHNNNC", "values": [
      {"measurement": "Agonism Ba/F-LP cells (% of hPRL max activity)", "setting": "human prolactin receptor [1]", "value": "26.4 % of hPRL max activity"},
      {"measurement": "Antagonism HL-5 cells IC50", "setting": "human prolactin receptor [1]", "value": 130, "unit": "nM"}
    ]},
    {"molecule": "G129V-hPRL (ligand, human, UniProt P01236 29-227, looked up) LPICPGGAARCQVTLRDLFDRAVVLSHYIHNLSSEMFSEFDKRYTHGRGFITKAINSCHTSSLATPEDKEQAQQMNQKDFLSLIVSILRSWNEPLYHLVTEVRGMQEAPEAILSKAVEIEEQTKRLLEVMELIVSQVHPETKENEIYPVWSGLPSLQMADEESRLSAYYNLLHCLRRDSHKIDNYLKLLKCRIIHNNNC", "values": [
      {"measurement": "Agonism Ba/F-LP cells (% of hPRL max activity)", "setting": "human prolactin receptor [1]", "value": "14.2 % of hPRL max activity"},
      {"measurement": "Antagonism HL-5 cells IC50", "setting": "human prolactin receptor [1]", "value": 110, "unit": "nM"}
    ]},
    {"molecule": "G129P-hPRL (ligand, human, UniProt P01236 29-227, looked up) LPICPGGAARCQVTLRDLFDRAVVLSHYIHNLSSEMFSEFDKRYTHGRGFITKAINSCHTSSLATPEDKEQAQQMNQKDFLSLIVSILRSWNEPLYHLVTEVRGMQEAPEAILSKAVEIEEQTKRLLEPMELIVSQVHPETKENEIYPVWSGLPSLQMADEESRLSAYYNLLHCLRRDSHKIDNYLKLLKCRIIHNNNC", "values": [
      {"measurement": "Agonism Ba/F-LP cells (% of hPRL max activity)", "setting": "human prolactin receptor [1]", "value": "90.4 % of hPRL max activity"},
      {"measurement": "Antagonism HL-5 cells IC50", "setting": "human prolactin receptor [1]", "value": 340, "unit": "nM"}
    ]}
  ]
}
